Assay results published in the supplement of paper PMC12455559.

What was measured:
[1] = purified protein yield per well (BCA); higher = higher soluble expression
Procedure, shortened: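 Expression was done in E. coli C41(DE3), using 2 mL autoinduction cultures with 100 µg/mL kanamycin incubated at 37 °C for 2 h and at 18 °C for 40 h. Protein was purified on Ni-charged magnetic beads and released by SUMO protease cleavage. Yield of purified protein per well was measured with the Pierce Rapid Gold BCA kit; values below 25 ug (0.1 mg/mL) are below detection.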

[2] = PET hydrolysis, aromatic products released after 48 h (umol product/mg enzyme); higher = more PET depolymerization activity; settings: substrate: cryPow
Experimental: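 HTP-purified, SUMO-cleaved, tagless PET hydrolase candidates (5 ug, 1.43 mg/g PET) were incubated 48 h without shaking with 3.5 mg amorphous PET film (aFilm) or crystalline PET powder (cryPow) in 0.5 mL buffer: NaCitrate pH 4.5/5.5, NaPhosphate pH 6.5/7.5, glycine pH 8.5. Incubation was at 40 or 60 C. Aromatic products (TPA, MHET, BHET) in the supernatant were quantified by UV absorbance at 260/280 nm relative to buffer blanks and expressed per mg enzyme. LCC-ICCG was the positive control on every plate.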

| Sequence | purified protein yield per well [1] [µg] | PET hydrolysis ([2]; 40 °C, pH 4.5) | PET hydrolysis ([2]; 40 °C, pH 5.5) | PET hydrolysis ([2]; 40 °C, pH 6.5) | PET hydrolysis ([2]; 40 °C, pH 7.5) | PET hydrolysis ([2]; 60 °C, pH 4.5) | PET hydrolysis ([2]; 60 °C, pH 5.5) | PET hydrolysis ([2]; 60 °C, pH 6.5) | PET hydrolysis ([2]; 60 °C, pH 7.5) | PET hydrolysis ([2]; 40 °C, pH 8.5) | PET hydrolysis ([2]; 60 °C, pH 8.5) |
| --- | --- | --- | --- | --- | --- | --- | --- | --- | --- | --- | --- |
| CAAGGPGASPGLQPTIASLSVDGAFKVMTYTDIPDVPEFGDATVYYPADTPTPIGGVAISPGWTEAQRHINWWGPRLASHGYAVLVLDTNDARRDQPEERAEALIAAVRILRGENDRAESPLQGRVDTGKMAIMGHSMGGGGTLIAANKYPDEIQAAIPFTPWQPDGDFGQITAPTLVMAGSADRVAGVADHAWPHYQSIPETTTKVFMEVDGGNHFIADTRRGTDLGTIGRYGIAWLKLYLDGDERYRSFIYGAEAEVDREKFSRYLTSP [TEP119] | 78.9 | < 3 | < 3 | < 3 | < 3 | < 3 | < 3 | < 3 | < 3 |  |  |
| CATAGSALVSAPSLSGDGSYEVQTYTDFPDVPEFGAATIYYPVGASEPMGGVAIAPGFTEEQRHIAWWGPRLASHGYAVLVLDTNDRRERPDARADALIAGVTLLRAEGRRRGSPLFGRIDAAKMAIMGHSMGGGGALLAADEHSDLIRAAIPFTPWEPETDLRGISAPTLVLAGAADRVAEVEGHAWRHFSMIPESTPKVYMEIAGGDHYIADTTRGMDLATVGRYAIAWLKLYVDGDEQYRDLIYGEIPPADAAKFSRYVVNP [TEP157] | 80.2 | < 3 | < 3 | < 3 | < 3 | < 3 | < 3 | < 3 | < 3 |  |  |
| DQIGQAPTASNITGDGSFAVTSSAVSGQTGFGGGTVYYPTQTGTYPVVAIMPGFLELWDAIKWMGPRLASWGYVVVGVNPNSVFDLPDSRGSQLLAALNWAVGSAPSAVQSRADGTRRGVVGYSMGGGGTLEALSRDTSGKVLAGVAFSPWDTNQNWSTVRQPEFIVGAQNDTVAPPAQHAIPFYNSLAGPKTYVELAGADHLWPTSDNPTGSRAMVSWLKRWLNSDSRFTPFTCGFTGSAISASMSNAC [ESM047] | 48.3 | 20 | 55 | 47 | 8 |  |  |  |  |  |  |
| DSPYERGPDPTTSSIEASSGPFDVDEDSVSSWSVSGFGGGTVYYPEDDGQTYGGVVIAPGYTESSSAMAWLGEYLASHGFVAFNIDTNTRYDQPDSRGRQIEAALDYLAEDSDVSDLVDPNRLAAMGHSMGGGGTLAAAEDRPELKAAIPLTPWHTDKTWGGVTVPTMIIGAENDTIAPNSSHSIPFYNSLSTSTERAYVELDGEGHLVTSSRNTELASNSVSWLKVFVDEDDRYEQFLCPAPSTGWGSPYSDYRDSCPYI [DP033] | 31 |  | < 3 | < 3 | < 3 |  |  |  |  | < 3 |  |
| DTGSHERGPDPTEQALEARSGPFDTDDERVSSLGASGFGGGTIYYPEDTSEGDFGAVALAPGYTASSTSYSSLAERIASHGFVVLAFDTNTRYDQPNSRGRQMESALEYLTEDSDVTDRIDTDRQAVSGHSMGGGGTLAAADDNPDLQAAVPLTPWHTQKSWSGMQVPTMIIGAENDSIASVRSHSIRFYESLPGSLEKGYAEVDGASHFAPNSNDDTVAKYTITWLKRFVDNDTRYEQFLCPPPDSGGWGDDLSDYRDSCPTG [DP052] | 36 |  | < 3 | < 3 | < 3 |  |  |  |  | < 3 |  |
| DTNPFQRGPAPTEASVSAQKGPFATAQVNVPANSGEGFNDGTIYYPTDTSQGTFGAIAVMPGFLSPQDWIRWYGPTLASQGFVVMTLDSKGFIDSPTARGNQLLAALDYLTTKSKVVDRIDTSRLGVVGWSMGGGGALESTYNRPSLKADVALAPWHVGLDQSKITVPSLILADDNDWLAPTGSFAKPFYAGIPESTNKAFIELKNANHFTFTGYNKNIAKYAVSWLKRFVDDDTRYDQFLCPKPATNNEISQSEETCPLH [DP054] | 39 |  | 5 | 7 | < 3 |  |  |  |  | < 3 |  |
| GESPGAAVVAFAGHAKGPAPTEQSVRAQQGPFTTDKLVVPAQAGRGFNKGTIYYPDDTSQGTFGAVAVIPGFLEGESAISWLGPTLASHGFITLTLAPNATTDYPEPRSNQLLAAVDWLANQSPVKDRVDPNRLAVAGHSMGGGGTLIAASKNPALKAAVPLTPWNPHSNFSDVTVPTLIIGADRDFIAPTFMHASPMYNSLKAKQDQAYLKLKNADHFATNRYNATATAYTVSWLKRYVDEDTRYSQFLCPVKSGFQLTCPI [DP011] | 26 |  | < 3 | < 3 | < 3 |  |  |  |  | < 3 |  |
| MHPTPDRAKVLPVNVSRGPAEPPAARSARPGGRSAPDGLRPGRRRPVPSSEQGATDVQSHPPTPANRRTRTVATLALALTLVGGAGAIAPTAHAAAGHERGPNPTSAALEASRGPFSVSSTTVSSLSASGFGGGTIYYPNDTGQGTFGGVIVAPGFTASRSTMAWLAERLASHGFVVFNIDTITRSDQPDSRGRQLLAAADHLAEESSPAVRSRLDAGRIGVMGHSMGGGGTLAAAESRPSLQAAVPLTPWHTDKSWGSVQVPTMIIGAENDSVAPVSSHAEPFYNSLSSAQEKAYLELNGASHFAPNSSNSTLAKYSIAWMKRFVDDDLRYDQFLCPAPGRSTRIEEYRSSCPH [TEP081] | 35.7 | < 3 | < 3 | < 3 | < 3 |  |  |  |  |  |  |
| MPQQAQAGPGNPYERGPAPTEASVTAERGPFAVSQKAVPESADGRFNKGTVYYPTDTSQGTFGAVAISPGFVSPEAAVGWLGPRLASQGFVVMTLETNTPLDFPDQRADQLLGALDWLTTSSDVRERIDASRLAVAGHSMGGGASLRASEKRPTLQAAVPLTPWHTDKTWEKDPVPTLVVGAENDTVAPVAEHAEPFYSSLSAAPEKAYLELEGADHLAPVAPNVTVAKYAISWLKRYVDDDTRYEQFLCPPPRPSSTISEYRDTCPGS [TEP193] | 50.4 | < 3 | < 3 | < 3 | < 3 |  |  |  |  |  |  |
| QAPTRESLGAQGPYQVAYYSNFPAVQEFTAGTIYFPANKAQTFGAVAISPGFAERQENMSWWGRHLASHGFAVLTLDTNELRDDPAIRAEALMAALRVLSGESEREGSPLRGKIDTNRMAIMGHSMGGGGTLLAANTHSSELKAAIPFTPWQPDGDFSDVTVPTLIIAGEIDRVAPVNDHAWPHYQSLSASNPRLYLEIRGGNHFIANTAT [TEP038] | 52.1 | < 3 | < 3 | < 3 | < 3 |  |  |  |  |  |  |
| QSNPYERGPAPTESSIEATRGSFSVSDKNVSSFSASGFGGGTIYYPTDTSQGTFGGVAISPGFTAGESSIAWLGPRIASQGFVVITIDTNSRYDQPNSRADQLQAALDHIVADSTVGSRIDPNRLAVMGHSMGGGGSLKAAEDNADLQAAVPLQPWHTQKNWSDVEVPTLIIGAENDSVASVTTHSKPFYTSLPDDLDKAYLELDGASHFVSNTPDTTTAKYSISWLKRFVDDDTRYEQFLCPAPDDRTISEYRDTCPHSGGGGTTPTTTPTTLPPDDDCAWWQWWC [DP057] | 34 |  | < 3 | 10 | 29 |  |  |  |  | 31 |  |
| QVAIFQESFSSGLGGFTATGTVGTSTGAARMEGCYGCTDGAITSGAISTQGFTGLSLSFDRVTSGLDSGEAGIAEYSTNGSTWTAVESTRVTTNGRVTFSLPDTAAGQAALRLRFRIDASLSSETYTVDNVQLTGIPGDTGTNPYAKGPNPTTSMLESSTGPFTYATTNVSEFSASGYGGGTIYHPTNVAGPFAAIAISPGYTGTKSTMSWWGERLASHGFVVITIDTNSIYDQPYERAPQLMAALRQLVTFSNTSSHPIYRKVDPNRLGVMGHSMGGGGTLIAARDNPTLKAAIPLAPWNTSTDFSSVRVPTLVVACESDTIAPVSQHASPFYNSIPASATKKAFMEMNNGDHFCVMTGNDYTRIMGKYGVAWMKRFMDNDTRYSPFLCGAPHQADLSNIQISEYRENCPY [DP048] | 56 |  | < 3 | < 3 | < 3 |  | < 3 | < 3 | < 3 | < 3 | < 3 |
| SNPTPTPTPTPTPTPTPGNNPFQRGPNPTLSFIEANSGPYSVRTSRVSSYTSGFGGGTIHYPTGQSGTMGAIVVIPGFVSAESSIEWWGPKLASHGFVVMTIDTNSGFDQPPSRARQINAALDYLVAQNRSSRSPVRGMIDTNRLGVVGWSMGGGGTLRVASEGRIKAAIPLAPWDTTSFRNVKAPTLIFACESDVIAPVGQHASPFYNELPSNISKAFVELNGGSHYCGNGGNSYNDVLSRFGVSWMKRFLDNDTRYSQFLCGPNHTSDRDISEYRGNCNY [ESM042] | 73.3 | < 3 | < 3 | < 3 | < 3 | < 3 | < 3 | < 3 | < 3 |  |  |
| TAGAEPSGGAPAAGGSGCGDVADPAAQGPLHVQTYSSGLRDGPDYGSQTMHYPTDGAPPYPALVIVPGFMSLESSIADHGPHFASHGIVTLTIGTNSTMDQPPARSEALLDALETIRAEHTRAGGPLEGKLDLSRLGVMGWSMGGGGTLITVDDHPELKAAITLCAWNPGQTYRNNQVPTLLFAGTADTLAGG [TEP195] | 30.1 | < 3 | < 3 | < 3 | < 3 |  |  |  |  |  |  |
